B1: Azoarcus group I ribozyme (parent)
chain: GUGCCUUGCGCCGGGAAACCACGCAAGGGAUGGUGUCAAAUUCGGCGAAACCUAAGCGCCCGCCCGGGCGUAUGGCAACGCCGAGCCAAGCUUCGGCGCCUGCGCCGAUGAAGGUGUAGAGACUAGACGGCACCCACCUAAGGCAAACGCUAUGGUGAAGGCAUAGUCCAGGGAGUGGCGAAAGUCACACAAACCGG

This data set covers variants of B1. The experiment in a line: reverse-splicing fitness (ratio to wild type); higher = more active; in vitro selection; Mg2+ level not given. In outline: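 An in vitro group I ribozyme library with randomized positions was T7-transcribed and gel-purified. In triplicate, 10 pmol RNA in EPPS pH 7.5 was reacted with 50 pmoles of a 30-nt RNA substrate for 1 h at 37 °C across several added MgCl2 levels (1–48 mM), then stopped with EDTA. Products were reverse transcribed from a substrate-complementary primer, PCR-amplified and sequenced (HiSeq 4000). Fitness is a variant's read proportion after selection over that before, normalised to wild type.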
In the case of C82G A111G A145G C169A U176A, the reverse-splicing fitness was determined as 0.0158.

Take C82G A111G A145U C150G C169A U176C: the reverse-splicing fitness was 0.0155.

Take C82G A111G A145U C150G C169A U176A: the reverse-splicing fitness stood at 0.0126.

On to C82G A111G A145U C150G C169A U176G, for which the reverse-splicing fitness came to 0.00637.

Turning to C82G A111G C150A C169U U176A, the reverse-splicing fitness was 0.0165.

Regarding C82G A111G C150A C169U U176C, the reverse-splicing fitness worked out at 0.0146.

For C82G A111G C150A C169U U176G, the reverse-splicing fitness worked out at 0.00706.

Regarding C82G A111U A120C, the reverse-splicing fitness stood at 0.0483.

Turning to C82G A111U A120C A145G C150G C169A, the reverse-splicing fitness was 0.00998.

As to C82G A111U A120C A145G C150G C169U, the reverse-splicing fitness was 0.0106.

With C82G A111U A120C A145G C150G C169G, the reverse-splicing fitness worked out at 0.00753.

With C82G A111G A145U C150A, the reverse-splicing fitness amounted to 0.0314.

In the case of C82G A111G A145U C150U, the reverse-splicing fitness was found to be 0.261.

Turning to C82G A111G A145U C150G, the reverse-splicing fitness was 0.0338.

Take C82G A111U A120C A145C C150G C169G U176C: the reverse-splicing fitness worked out at 0.00909.

For C82G A111U A120C A145C C150G C169G U176G, the reverse-splicing fitness worked out at 0.00606.

Regarding C82G A111U A120C A145C C150G C169G U176A, the reverse-splicing fitness came to 0.0106.

For the variant C82G A111U A120C A145C C150U C169G U176G, the reverse-splicing fitness was 0.00776.

For the variant C82G A111U A120C A145C C150U C169G U176C, the reverse-splicing fitness turned out to be 0.0221.

C82G A111U A120C A145C C150U C169G U176A: the reverse-splicing fitness turned out to be 0.0279.

On to C82G A111G C150A U176G, for which the reverse-splicing fitness worked out at 0.0174.

With C82G A111G C150A U176A, the reverse-splicing fitness worked out at 0.0337.

C82G A111G C150A U176C: the reverse-splicing fitness stood at 0.0385.

As for C82G A111U A120C A145G C150G C169U U176G, the reverse-splicing fitness was determined as 0.00871.

In the case of C82G A111U A120C A145G C150G C169U U176A, the reverse-splicing fitness came out at 0.0139.

Turning to C82G A111U A120C A145G C150G C169U U176C, the reverse-splicing fitness was 0.0123.

For C82G A111U A120C A145U C150A C169U U176A, the reverse-splicing fitness was determined as 0.0146.

Regarding C82G A111U A120C A145U C150A C169U U176C, the reverse-splicing fitness amounted to 0.0141.

On to C82G A111U A120C A145U C150A C169U U176G, for which the reverse-splicing fitness stood at 0.00715.

For the variant C82G A111G C150U C169A, the reverse-splicing fitness is 0.0104.

Regarding C82G A111G C150U C169G, the reverse-splicing fitness was found to be 0.00932.

For the variant C82G A111G C150U C169U, the reverse-splicing fitness was found to be 0.0123.

On to C82G A111G A145U U176A, for which the reverse-splicing fitness was 0.257.

With C82G A111G A145U U176G, the reverse-splicing fitness was found to be 0.136.

On to C82G A111G A145U U176C, for which the reverse-splicing fitness worked out at 0.28.

Take C82G A111G A145U C150G U176C: the reverse-splicing fitness came to 0.0287.

For the variant C82G A111G A145U C150G U176G, the reverse-splicing fitness was determined as 0.00715.

With C82G A111G A145U C150G U176A, the reverse-splicing fitness was 0.0185.

In the case of C82G A111U A120C A145C C150U C169A U176C, the reverse-splicing fitness came out at 0.0115.

With C82G A111U A120C A145C C150U C169A U176A, the reverse-splicing fitness amounted to 0.0164.

Turning to C82G A111U A120C A145C C150U C169A U176G, the reverse-splicing fitness was determined as 0.00651.

Take C82G A111G C150U C169A U176C: the reverse-splicing fitness was 0.0178.

C82G A111G C150U C169A U176A: the reverse-splicing fitness came out at 0.0173.

As for C82G A111G C150U C169A U176G, the reverse-splicing fitness worked out at 0.00685.

For the variant C82G A111U A120C A145C C169U U176A, the reverse-splicing fitness came out at 0.0148.

As for C82G A111U A120C A145C C169U U176G, the reverse-splicing fitness worked out at 0.00455.

Turning to C82G A111U A120C A145C C169U U176C, the reverse-splicing fitness was 0.0128.

In the case of C82G A111U A120C A145C C150G U176A, the reverse-splicing fitness is 0.00451.

Take C82G A111U A120C A145C C150G U176G: the reverse-splicing fitness amounted to 0.00354.

C82G A111U A120C A145C C150G U176C: the reverse-splicing fitness was found to be 0.00843.

C82G A111U A120C A145G C150U U176G: the reverse-splicing fitness turned out to be 0.00905.

For the variant C82G A111U A120C A145G C150U U176C, the reverse-splicing fitness stood at 0.0292.

Turning to C82G A111U A120C A145G C150U U176A, the reverse-splicing fitness amounted to 0.015.

In the case of C82G A111G C150G C169G U176C, the reverse-splicing fitness came out at 0.00922.

In the case of C82G A111G C150G C169G U176G, the reverse-splicing fitness stood at 0.00613.

For the variant C82G A111G C150G C169G U176A, the reverse-splicing fitness is 0.0106.

For C82G A111U A120C A145G C150G C169G U176G, the reverse-splicing fitness was found to be 0.00661.

As to C82G A111U A120C A145G C150G C169G U176A, the reverse-splicing fitness came out at 0.0117.

Consider C82G A111U A120C A145G C150G C169G U176C, for which the reverse-splicing fitness stood at 0.0139.

Take C82G A111G C169U U176G: the reverse-splicing fitness came to 0.00625.

Turning to C82G A111G C169U U176C, the reverse-splicing fitness is 0.0177.

C82G A111G C169U U176A: the reverse-splicing fitness came out at 0.0155.

As for C82G A111G A145U C150G C169U, the reverse-splicing fitness stood at 0.00934.

Turning to C82G A111G A145U C150G C169G, the reverse-splicing fitness worked out at 0.00774.

Turning to C82G A111G A145U C150G C169A, the reverse-splicing fitness was determined as 0.0092.

C82G A111G A145U: the reverse-splicing fitness came to 0.454.

For the variant C82G A111U A120C A145U C150A C169A U176G, the reverse-splicing fitness worked out at 0.00709.

Take C82G A111U A120C A145U C150A C169A U176A: the reverse-splicing fitness was 0.0187.

For C82G A111U A120C A145U C150A C169A U176C, the reverse-splicing fitness was 0.0144.

For the variant C82G A111G A145U C150G C169G U176C, the reverse-splicing fitness came out at 0.00969.

In the case of C82G A111G A145U C150G C169G U176A, the reverse-splicing fitness is 0.00911.

C82G A111G A145U C150G C169G U176G: the reverse-splicing fitness stood at 0.00579.

As for C82G A111G A145U C169U U176G, the reverse-splicing fitness amounted to 0.00489.

Consider C82G A111G A145U C169U U176A, for which the reverse-splicing fitness is 0.0142.

C82G A111G A145U C169U U176C: the reverse-splicing fitness came out at 0.0127.

Take C82G A111U A120C A145C C150A C169G U176A: the reverse-splicing fitness came out at 0.0314.

For C82G A111U A120C A145C C150A C169G U176G, the reverse-splicing fitness was found to be 0.00687.

Take C82G A111U A120C A145C C150A C169G U176C: the reverse-splicing fitness was determined as 0.0279.

Take C82G A111U A120C A145G C150U C169U: the reverse-splicing fitness is 0.0134.

For C82G A111U A120C A145G C150U C169G, the reverse-splicing fitness worked out at 0.00889.

As to C82G A111U A120C A145G C150U C169A, the reverse-splicing fitness was 0.0111.

As for C82G A111U A120C A145U C150U C169A, the reverse-splicing fitness came to 0.0102.

As to C82G A111U A120C A145U C150U C169U, the reverse-splicing fitness came to 0.0129.

As to C82G A111U A120C A145U C150U C169G, the reverse-splicing fitness was 0.00939.

Values taken from the RNAGym collection of RNA variant scans (doi:10.1093/molbev/msab373).
